How the values were obtained:
Bcl-2/ΔTM = target: T1, Bcl-2/ΔTM (Homo sapiens, UniProt P10415); assay: Mammalian two-hybrid assay in CV-1 cells; assay type: cell-based; conditions: Gal-TAD fusion co-expressed with Gal4-DBD-Bcl-2/ΔTM, 48 h
T1 construct: expressed in transfected cells; host or cells: CV-1
Protocol: TR3/Bcl-2 interaction assays—Reporter gene assays using NurRE-tk-CAT in CV-1 cells, and GST pull-down assay were described previously (Li, et al. 2000 Science 289, 1159-1164). For the mammalian two-hybrid assays, CV-1 cells were co-transfected with pcDNA-Gal4TAD-TR3 or pcDNA-Gal4TAD-TR3/ΔDBD and pcDNA-Gal4DBD-Bcl-2/ΔTM along with a luciferase reporter gene driven by four copies of the Gal4-binding site. The cells were harvested and reporter gene activity was measured. For Co-IP assays, HEK293T cells were transiently transfected with various expression plasmids using a modified calcium phosphate precipitation method (Wu et al, 1997) in the presence of caspase inhibitors (zVAD-fmk) to prevent degradation of TR3 protein due to apoptosis. Cells were suspended in lysis buffer (50 mM Tris-HCl, PH7.4; 150 mM NaCl; 20 mM EDTA; 1% NP-40; 1 mM PMSF; 50 μg/ml Leupeptin; […]; 0.1 mM Na3VO4; and 1 mM DTT). […] Immunoreactive products were detected by chemiluminescence with an enhanced chemiluminescence system (ECL) (Amersham).
E. Two-hybrid assay—a two-hybrid assay was performed to assess the interaction of TR3 and Bcl-2. […] Reporter gene activity was determined 48 h later and normalized relative to β-gal activity.

[1] = system: Bcl-2 mutants Y108K, L137A, G145A, R146Q; assay: Co-IP assay with Bcl-2 hydrophobic groove mutants in HEK293T cells; assay type: binding
Protocol: TR3/Bcl-2 interaction assays—Reporter gene assays using NurRE-tk-CAT in CV-1 cells, and GST pull-down assay were described previously (Li, et al. 2000 Science 289, 1159-1164). For the mammalian two-hybrid assays, CV-1 cells were co-transfected with pcDNA-Gal4TAD-TR3 or pcDNA-Gal4TAD-TR3/ΔDBD and pcDNA-Gal4DBD-Bcl-2/ΔTM along with a luciferase reporter gene driven by four copies of the Gal4-binding site. The cells were harvested and reporter gene activity was measured. […] Immunoreactive products were detected by chemiluminescence with an enhanced chemiluminescence system (ECL) (Amersham).
Binding of BH3 domain to Bcl-2 is mediated by a hydrophobic cleft formed by the BH1, BH2, and BH3 region of Bcl-2 (Sattler et al. 1997 Science 275:983-986). To determine whether TR3/ΔDBD bound to the Bcl-2 hydrophobic groove, several Bcl-2 mutants with mutations of amino acids, Tyr108, Leu137, or Arg146, critical for the formation of the hydrophobic cleft, were analyzed for their interaction with TR3/ΔDBD. […] The Bcl-2 mutants, Y108KBcl-2, L137ABcl-2 and R146QBcl-2, were analyzed for their interaction with GFP-TR3/ΔDBD in 293T cells by Co-IP assay as described in Example 2. […]

Calu-6 lung cancer cells [2] = assay: Mitochondrial targeting and cytochrome c release in Calu-6 cells; assay type: cell-based
From the text: TR3/ΔDBD targets mitochondria in NCI-H460 cells, which express high levels of Bcl-2 (Lu et al. 2001 Cancer Chemother Pharmacol 47:170-178). To determine whether Bcl-2 is involved in mitochondrial targeting of TR3, GFP-TR3/ΔDBD was transfected into Calu-6 lung cancer cells, which express low levels of Bcl-2. GFP-TR3/ΔDBD and Bcl-2 were transfected into Calu-6 lung cancer cells alone or together.

Calu-6 lung cancer cells [3] = assay: DAPI apoptosis assay in Calu-6 cells; assay type: cell-based
Protocol: Apoptosis assays—For nuclear morphological change analysis, cells were trypsinized, washed with PBS, fixed with 3.7% paraformaldehyde, and stained with DAPI (4,6-diamidino-2-phenylindole) (50 μg/ml) to visualize the nuclei by UV-microscopy. The percentages of apoptotic cells were determined by counting 300 GFP-positive cells, scoring cells having nuclear fragmentation and/or chromatin condensation.
DAPI staining was used to study the apoptotic effect of TR3/Bcl-2 interaction. 293T cells were transfected with GFP-TR3/ΔDBD alone or together with Bcl-2. After 36 h, nuclei were stained by DAPI and nuclear fragmentation and chromatin condensation were identified. Cells were also stained with anti-Bcl-2 antibody, followed by TRITC-conjugated secondary antibody (Sigma). Bcl-2 and GFP-ΔDBD expression and nuclear morphology were visualized by fluorescence microscopy, and the two images were overlaid. […] But, when Bcl-2 was cotransfected, a significant amount of transfected cells underwent apoptosis. For example, approximately 4% of cells transfected with either TR3/ΔDBD or Bcl-2 were apoptotic, compared to 35% of cell transfected with both. […] Cotransfection of Bcl-2, however, prevented BAX-induced apoptosis in these cells (see FIG. 4). The effect of Bcl-2 on apoptotic potential of TR3/ΔDBD in lung cancer and breast cancer cells was also investigated.

Bcl-2 = target: T2, Bcl-2 (Homo sapiens, UniProt P10415); assay: Bcl-2 conformation by immunoprecipitation with epitope-specific antibodies; assay type: binding
T2 construct: expressed in transfected cells; host or cells: HEK293T
From the text: Second, the effects of TR3/ΔDBD on Bcl-2 conformation were studied by immunoprecipitation assays.

T2 sequence (P10415 whole entry): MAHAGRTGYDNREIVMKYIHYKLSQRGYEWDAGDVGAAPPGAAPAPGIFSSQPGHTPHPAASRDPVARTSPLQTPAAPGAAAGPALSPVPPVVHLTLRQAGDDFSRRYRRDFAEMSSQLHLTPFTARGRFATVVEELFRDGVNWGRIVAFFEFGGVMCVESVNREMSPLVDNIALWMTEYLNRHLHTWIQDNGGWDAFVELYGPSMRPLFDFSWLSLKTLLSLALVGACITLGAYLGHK
T1 sequence (P10415 1-204 limits assumed, stated change not applied): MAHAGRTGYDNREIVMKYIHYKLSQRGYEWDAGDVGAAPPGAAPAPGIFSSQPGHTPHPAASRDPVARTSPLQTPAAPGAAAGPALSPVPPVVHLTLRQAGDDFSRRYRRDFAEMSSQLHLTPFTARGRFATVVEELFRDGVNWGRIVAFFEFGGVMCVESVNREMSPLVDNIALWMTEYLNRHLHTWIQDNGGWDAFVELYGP
Chain of Bcl-2 mutants Y108K, L137A, G145A, R146Q (P10415 1-80 limits assumed, stated change not applied): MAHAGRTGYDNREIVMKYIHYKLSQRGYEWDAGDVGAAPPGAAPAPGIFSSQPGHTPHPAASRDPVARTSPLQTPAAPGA

Gal4 reporter gene activity (Bcl-2/ΔTM): strongly activated
binding of Bcl-2 by antibody against BH3-binding pocket (Bcl-2): reduced binding
binding of Bcl-2 by antibody against BH3 domain (Bcl-2): enhancing binding
immunoprecipitation efficiency of antibody against whole Bcl-2 protein (Bcl-2): did not affect
B1: TR3/ΔDBD: TR3 mutant with the DNA binding domain removed; used as GFP fusion (protein)
chain: MPCIQAQYGTPAPSPGPRDHLASDPLTPEFIKPTMDLASPEAAPAAPTALPSFSTFMDGYTGEFDTFLYQLPGTVQPCSSASSSASSTSSSSATSPASASFKFEDFQVYGCYPGPLSGPVDEALSSSGSDYYGSPCSAPSPSTPSFQPPQLSPWDGSFGHFSPSQTYLVLHRLQCARGFGDWIDSILAFSRSLHSLLVDVPAFACLSALVLITDRHGLQEPRRVEELQNRIASCLKEHVAAVAGEPQPASCLSRLLGKLPELRTLCTQGLQRIFYLKLEDLVPPPPIIDKIFMDTLPF
modifications: left off: large carriers; small tags and cut ends
notes: used as GFP fusion
binding of Bcl-2 hydrophobic groove mutants to TR3/ΔDBD (Co-IP) [1]: still capable of binding
subcellular distribution (Calu-6 lung cancer cells [2]; Calu-6, Bcl-2 co-transfected): targeted mitochondria
cytochrome c release (Calu-6 lung cancer cells [2]; Calu-6, Bcl-2 cotransfected): released from mitochondria
subcellular distribution (Calu-6 lung cancer cells [2]; Calu-6, alone): diffusely distributed
apoptosis (Calu-6 lung cancer cells [3]; Calu-6, absence of Bcl-2): did not show any apoptotic effect
apoptosis (Calu-6 lung cancer cells [3]; Calu-6, co-expression of Bcl-2): strong induction of apoptosis
